Measured values published in the supplement of paper PMC7877785.
± gives the uncertainty stated by the source.

Test: self-splicing fitness, log relative to wild type (ln ratio); higher = more splicing; Tetrahymena group I intron in knt gene, E. coli kanamycin selection, DiMSum; sequences stand for … in CUCUCU…GGAGGGAAAAGUUAUCAGGCAUGCACCUGGUAGCUAGUCUUUAAACCAAUAGAUUGCAUCGGUUUAAAAGGCAAGACCGUCAAAUUGCGGGAAAGGGGUCAACAGCCGUUCAGUACCAAGUCUCAGGGGAAACUUUGAGAUGGCCUUGCAAAGGGUAUGGUAAUAAGCUGACGGACAUGGUCCUAACCACGCAGCCAAGUCCUAAGUCAACAGAUCUUCUGUUGAUAUGGAUGCAGUUCACAGACUAAAUGUCGGUCGGGGAAGAUGUAUUCUUCUCAUAAGAUAUAGUCGGACCUCUCCUUAAUGGGAGCUAGCGGAUGAAGUGAUGCAACACUGGAGCCGCUGGGAACUAAUUUGUAUGCGAAAGUAUAUUGAUUAGUUUUGGAGUACUCGUGGUCG
Method in brief: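 Six replicate transformations of E. coli BL21(DE3) with a pET-22b(+) library were grown overnight at 37°C or 30°C. The library randomised all eight P1ex-region intron nucleotides, the intron lying in the knt kanamycin-resistance gene, and plates were LB agar with or without 25 μg/mL kanamycin plus 100 μg/mL carbenicillin, 50 μM IPTG and 0.2% rhamnose. Pooled colonies were amplicon-sequenced on an Illumina HiSeq 2500, and fitness is the DiMSum error-weighted combination of wild-type-normalised replicate fold changes, kanamycin versus none.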

| Sequence | self-splicing fitness (ln) (37 °C) | self-splicing fitness (ln) (30 °C) |
| --- | --- | --- |
| GUGGAGCAAUAUUACGUGAA | -0.49 ± 0.28 | – |
| GUGGAGCAAUAUUACGUUCG | -0.499 ± 0.25 | -1.45 ± 0.2 |
| GUGGAGCAAUAUUACGUUGG | -3.36 ± 0.43 | -3.39 ± 0.28 |
| GUGUAGCAAUAUUACGAAAA | -1.51 ± 0.29 | -2.71 ± 0.4 |
| GUGUAGCAAUAUUACGACGG | -0.904 ± 0.15 | -3.88 ± 0.31 |
| GUGUAGCAAUAUUACGACUC | -0.0849 ± 0.21 | -0.267 ± 0.15 |
| GUGUAGCAAUAUUACGAUAG | -0.946 ± 0.19 | -3.84 ± 0.27 |
| GUGUAGCAAUAUUACGAUUG | -2.18 ± 0.2 | -4.18 ± 0.3 |
| GUGUAGCAAUAUUACGCAAC | -0.636 ± 0.23 | – |
| GUGUAGCAAUAUUACGCGGC | -0.745 ± 0.23 | -2.8 ± 0.29 |
| GUGUAGCAAUAUUACGCGUC | -0.598 ± 0.14 | -3.17 ± 0.21 |
| GUGUAGCAAUAUUACGGACG | -1.32 ± 0.17 | -0.958 ± 0.14 |
| GUGUAGCAAUAUUACGGAGG | -2.67 ± 0.22 | -3.89 ± 0.29 |
| GUGUAGCAAUAUUACGGUCU | 0.619 ± 0.2 | -1.6 ± 0.2 |
| GUGUAGCAAUAUUACGGUGU | -0.0252 ± 0.14 | -2.26 ± 0.16 |
| GUGUAGCAAUAUUACGUAGA | -1.8 ± 0.36 | -3.14 ± 0.25 |
| GUGUAGCAAUAUUACGUCCA | -0.639 ± 0.39 | -1.74 ± 0.38 |
| GUGUAGCAAUAUUACGUGCC | -2.7 ± 0.32 | -3.46 ± 0.35 |
| GUGUAGCAAUAUUACGUUAC | -2.56 ± 0.35 | – |
| GUUAAGCAAUAUUACGACAU | 0.118 ± 0.033 | -0.0837 ± 0.013 |
| GUUAAGCAAUAUUACGACGU | 0.426 ± 0.069 | -0.121 ± 0.059 |
| GUUAAGCAAUAUUACGACUU | 0.278 ± 0.13 | 0.183 ± 0.11 |
| GUUAAGCAAUAUUACGAGGC | -1.34 ± 0.3 | -3.2 ± 0.28 |
| GUUAAGCAAUAUUACGAUAA | -0.923 ± 0.2 | -1.48 ± 0.18 |
| GUUAAGCAAUAUUACGAUUC | -0.608 ± 0.11 | 0.0872 ± 0.085 |
| GUUAAGCAAUAUUACGCAGG | -2.47 ± 0.31 | -3.11 ± 0.38 |

| Sequence | self-splicing fitness (ln) (37 °C) | self-splicing fitness (ln) (30 °C) |
| --- | --- | --- |
| GUUAAGCAAUAUUACGCCGC | -2.03 ± 0.31 | -3.02 ± 0.21 |
| GUUAAGCAAUAUUACGCGUC | -1.96 ± 0.2 | -3.23 ± 0.26 |
| GUUAAGCAAUAUUACGCUGU | -1.78 ± 0.17 | -2.62 ± 0.21 |
| GUUAAGCAAUAUUACGGACG | -1.3 ± 0.14 | -1.07 ± 0.12 |
| GUUAAGCAAUAUUACGGAGA | -2.57 ± 0.25 | -3.29 ± 0.26 |
| GUUAAGCAAUAUUACGGCUA | 0.176 ± 0.1 | 0.289 ± 0.099 |
| GUUAAGCAAUAUUACGGGCG | -0.388 ± 0.11 | -1.44 ± 0.1 |
| GUUAAGCAAUAUUACGGGUA | -1.39 ± 0.12 | -2.01 ± 0.14 |
| GUUAAGCAAUAUUACGGGUG | -2.39 ± 0.14 | -3.29 ± 0.15 |
| GUUAAGCAAUAUUACGGUCC | 0.191 ± 0.15 | -0.666 ± 0.12 |
| GUUAAGCAAUAUUACGGUCU | -0.0437 ± 0.12 | -2.3 ± 0.14 |
| GUUAAGCAAUAUUACGGUUA | -0.554 ± 0.096 | -1.33 ± 0.096 |
| GUUAAGCAAUAUUACGUCAG | -2.22 ± 0.4 | – |
| GUUAAGCAAUAUUACGUGGC | -2.1 ± 0.33 | – |
| GUUCAGCAAUAUUACGAAAA | 0.45 ± 0.15 | -0.216 ± 0.13 |
| GUUCAGCAAUAUUACGAAUG | 0.0253 ± 0.11 | -0.469 ± 0.076 |
| GUUCAGCAAUAUUACGACAC | 0.897 ± 0.18 | -0.34 ± 0.15 |
| GUUCAGCAAUAUUACGACUA | -0.368 ± 0.15 | -1.28 ± 0.17 |
| GUUCAGCAAUAUUACGAUGC | 0.2 ± 0.14 | -0.236 ± 0.17 |
| GUUCAGCAAUAUUACGCAGA | -1.3 ± 0.17 | -1.72 ± 0.2 |
| GUUCAGCAAUAUUACGCAGU | 0.201 ± 0.22 | -1.18 ± 0.14 |
| GUUCAGCAAUAUUACGCCGU | -0.339 ± 0.12 | -1.57 ± 0.1 |
| GUUCAGCAAUAUUACGCGAC | -1.22 ± 0.29 | -3.9 ± 0.29 |
| GUUCAGCAAUAUUACGCGCA | 0.567 ± 0.21 | -1.04 ± 0.2 |
| GUUCAGCAAUAUUACGCUAA | 0.184 ± 0.2 | -1.03 ± 0.2 |
| GUUCAGCAAUAUUACGCUCG | 0.0872 ± 0.15 | 0.167 ± 0.12 |

| Sequence | self-splicing fitness (ln) (37 °C) | self-splicing fitness (ln) (30 °C) |
| --- | --- | --- |
| GUUCAGCAAUAUUACGCUUA | -0.0254 ± 0.12 | -0.682 ± 0.12 |
| GUUCAGCAAUAUUACGCUUC | -0.661 ± 0.14 | -0.641 ± 0.11 |
| GUUCAGCAAUAUUACGGCAU | 0.567 ± 0.072 | -0.334 ± 0.067 |
| GUUCAGCAAUAUUACGGGCC | -2.25 ± 0.2 | -3.61 ± 0.2 |
| GUUCAGCAAUAUUACGGGGG | -1.4 ± 0.16 | -1.52 ± 0.13 |
| GUUCAGCAAUAUUACGGUUA | -0.352 ± 0.082 | -0.817 ± 0.098 |
| GUUCAGCAAUAUUACGUAGU | 0.369 ± 0.11 | -0.247 ± 0.11 |
| GUUCAGCAAUAUUACGUGCC | -1.19 ± 0.19 | -2.59 ± 0.2 |
| GUUCAGCAAUAUUACGUGGU | -0.621 ± 0.079 | -1.03 ± 0.057 |
| GUUCAGCAAUAUUACGUGUG | -0.806 ± 0.084 | -0.881 ± 0.066 |
| GUUCAGCAAUAUUACGUUUU | -0.216 ± 0.062 | -0.661 ± 0.052 |
| GUUGAGCAAUAUUACGAAUC | 0.505 ± 0.25 | -1.91 ± 0.26 |
| GUUGAGCAAUAUUACGACAC | -0.362 ± 0.19 | -0.129 ± 0.18 |
| GUUGAGCAAUAUUACGAGAU | -2.81 ± 0.31 | -2.7 ± 0.19 |
| GUUGAGCAAUAUUACGAGCA | -1.71 ± 0.32 | -2.68 ± 0.28 |
| GUUGAGCAAUAUUACGAGCG | -1.37 ± 0.25 | – |
| GUUGAGCAAUAUUACGAGGG | -2.67 ± 0.24 | -2.7 ± 0.21 |
| GUUGAGCAAUAUUACGAGUU | -2.56 ± 0.33 | – |
| GUUGAGCAAUAUUACGAUUU | -1.64 ± 0.16 | -1.2 ± 0.12 |
| GUUGAGCAAUAUUACGCACA | -0.945 ± 0.15 | -1.83 ± 0.14 |
| GUUGAGCAAUAUUACGCAGA | -3.6 ± 0.46 | -2.67 ± 0.34 |
| GUUGAGCAAUAUUACGCAGC | – | -2.23 ± 0.35 |
| GUUGAGCAAUAUUACGCCGA | – | -2.15 ± 0.41 |
| GUUGAGCAAUAUUACGCGAU | -2.47 ± 0.34 | -3.79 ± 0.3 |
| GUUGAGCAAUAUUACGCUUU | -2.45 ± 0.26 | -3.95 ± 0.48 |
| GUUGAGCAAUAUUACGGACA | -1.32 ± 0.43 | -0.932 ± 0.47 |
